From patent publication US20240002528A1 (University of Texas, published 2024)
One block for each binder: values may come before it.

Columns and labels:
[1] = target: T1, full-length human cystinosin-LKG with a C-terminal Flag tag (human, UniProt O60931-2 23-400, limits assumed); test: size-exclusion chromatography (gel filtration) of Cystinosin incubated with Fab3H5 at a 1:1.5 molar ratio, with a polyacrylamide gel of the peak fraction; the sheet is marked pH7.0
T1 construct: Expressed in HEK-293S GnTI- cells and purified in DDM then digitonin; It was reconstituted in amphipols for immunisation; also called recombinant human Cystinosin; wild-type (WT) human Cystinosin; not shown: C-terminal Flag tag
T1 sequence (looked up): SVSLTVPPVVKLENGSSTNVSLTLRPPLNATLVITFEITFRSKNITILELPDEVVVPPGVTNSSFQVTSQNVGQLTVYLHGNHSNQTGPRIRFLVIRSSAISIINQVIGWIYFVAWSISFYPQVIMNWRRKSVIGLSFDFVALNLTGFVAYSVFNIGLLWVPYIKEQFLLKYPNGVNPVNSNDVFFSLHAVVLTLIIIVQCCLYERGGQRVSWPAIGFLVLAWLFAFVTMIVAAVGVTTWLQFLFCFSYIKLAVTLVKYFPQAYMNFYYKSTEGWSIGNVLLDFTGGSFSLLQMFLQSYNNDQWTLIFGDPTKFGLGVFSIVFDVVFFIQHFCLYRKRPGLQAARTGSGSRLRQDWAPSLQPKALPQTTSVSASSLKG
Experimental: To assemble Cystinosin-Fab^3H5 complex, purified Cystinosin was incubated with Fab^3H5 at a 1:1.5 molar ratio at 4° C. for 30 minutes. The mixture was then purified by SEC using the aforementioned buffer (FIG. 1A). Peak fractions were collected and concentrated to […]. The isolated complex was then used for functional and structural studies. In particular the complex was used in Cryo-EM studies.

[2] = target: T1, full-length human cystinosin-LKG with a …; test: ELISA and immunoprecipitation screen of hybridoma supernatants; ELISA and immunoprecipitation screen of hybridoma clone (folded cystinosin)

binding result [1]: binds
B1: Fab3H5 (Fab fragment of IgG-3H5 generated by papain cleavage) (Fab, V domains shown)
VH: EVMLVESGGGLVKPGGSLKLSCAASGFTFSNYAMSWVRQTPEKRLEWVAAISGNEGTYTYYPDSVRGRFTISRDNARNNLYLQISSLRSEDTALYYCARYGLVGALDFWGQGAS
VL: DIQMNQSPSTLSASLGDTITITCRASQNIDVWLNWYQQKPGDIPKLLIYEASNLHTGVPSRFSGSGSGTDFTLAISSLQPEDIATYYCLQGQDYPFTFGSGTK
notes: The reaction was stopped with iodoacetamide

binding result [2]: binds
B2: IgG-3H5, a mouse monoclonal anti-human Cystinosin antibody (antibody, V domains shown)
VH: B1 VH
VL: B1 VL
notes: also called 3H5 antibody; monoclonal antibody 3H5
